From article PMC6458997 (Molecular Cell, 2019)
Residue numbers refer to the chain shown, from its start. In names and notes the source's numbering stands.

B1: SPbeta AimR (arbitrium peptide receptor / transcription factor AimR of Bacillus subtilis phage SPbeta), full length (natural protein, Bacillus subtilis SPbeta phage, UniProt O64094 1-386, looked up)
chain: MELIRIAMKKDLENDNSLMNKWATVAGLKNPNPLYDFLNHDGKTFNEFSSIVNIVKSQYPDREYELMKDYCLNLDVKTKAARSALEYADANMFFEIEDVLIDSMISCSNMKSKEYGKVYKIHRELSNSVITEFEAVKRLGKLNIKTPEMNSFSRLLLLYHYLSTGNFSPMAQLIKQIDLSEISENMYIRNTYQTRVHVLMSNIKLNENSLEECREYSKKALESTNILRFQVFSYLTIGNSLLFSNYELAQENFLKGLSISVQNENYNMIFQQALCFLNNVWRKENKWINFESDSIMDLQEQAHCFINFNENSKAKEVLDKLDLLVHNDNELAMHYYLKGRLEQNKACFYSSIEYFKKSNDKFLIRLPLLELQKMGENQKLLELLLL
notes: AimR of Bacillus subtilis phage SPbeta, amplified from genomic DNA of Bacillus subtilis strain 168; full-length AimR (residues 1-386); Cloned in pLicSGC1 with N-terminal 6xHis tag and TEV site; digested with TEV protease; A selenomethionine derivative was used to phase the AimR-AimP structure; also called WT AimR; apo AimR; source: E. coli BL21 (DE3) RIL, purified (HisTrap FF, TEV digestion, …)
B2: SPbeta AimR N202A mutant (natural protein, Bacillus subtilis SPbeta phage)
chain: B1 chain with N202A
B3: SPbeta AimR D360A mutant (natural protein, Bacillus subtilis SPbeta phage)
chain: B1 chain with D360A
B4: SPbeta AimP arbitrium peptide GMPRGA (peptide)
peptide: GMPRGA
notes: active (mature) arbitrium hexapeptide AimP of phage SPbeta, product of the yopL gene, which corresponds to phi3T aimP; also called GMPRGA peptide; SPbeta-specific arbitrium peptide; source: synthetic peptide, bought: ProteoGenix (95% purity)

Assays:
[1] = molecular target: the molecule itself; experiment: SEC-MALS; as the apo run, with 1 mM AimP peptide added to the injected sample and 1 μM peptide in the running buffer (25 mM Tris pH 8, 250 mM NaCl)
[2] = molecular target: the molecule itself; experiment: SEC-MALS; 50 μL protein at 5 mg/mL on Superdex 200 HR 10/300 in 25 mM Tris pH 8, 250 mM NaCl; no peptide
[3] = molecular target: B1; experiment: thermal shift assay (differential scanning fluorimetry); 20 μM protein, 5x Sypro Orange, 20 mM Tris pH 8, 250 mM NaCl, heated 20 to 85°C; apparent Kd from 10 peptide concentrations from 0 to 2 μM, fitted to a single binding site per monomer; conditions: both partners purified

## B1
[1]
  stoichiometry N: 2

## B2
[2]
  stoichiometry N: 2

## B3
[2]
  stoichiometry N: 2

## B4
[3]
  Kd: 53.8 nM
  increment in the melting temperature (Tm) of AimR: ~10 °C
